From publication PMC7614990 (Science (New York, N.Y.), 2021) come the findings set out here.

B1: SF3B1 (natural protein)
chain: MAKIAKTHEDIEAQIREIQGKKAALDEAQGVGLDSTGYYDQEIYGGSDSRFAGYVTSIAATELEDDDDDYSSSTSLLGQKKPGYHAPVALLNDIPQSTEQYDPFAEHRPPKIADREDEYKKHRRTMIISPERLDPFADGGKTPDPKMNARTYMDVMREQHLTKEEREIRQQLAEKAKAGELKVVNGAAASQPPSKRKRRWDQTADQTPGATPKKLSSWDQAETPGHTPSLRWDETPGRAKGSETPGATPGSKIWDPTPSHTPAGAATPGRGDTPGHATPGHGGATSSARKNRWDETPKTERDTPGHGSGWAETPRTDRGGDSIGETPTPGASKRKSRWDETPASQMGGSTPVLTPGKTPIGTPAMNMATPTPGHIMSMTPEQLQAWRWEREIDERNRPLSDEELDAMFPEGYKVLPPPAGYVPIRTPARKLTATPTPLGGMTGFHMQTEDRTMKSVNDQPSGNLPFLKPDDIQYFDKLLVDVDESTLSPEEQKERKIMKLLLKIKNGTPPMRKAALRQITDKAREFGAGPLFNQILPLLMSPTLEDQERHLLVKVIDRILYKLDDLVRPYVHKILVVIEPLLIDEDYYARVEGREIISNLAKAAGLATMISTMRPDIDNMDEYVRNTTARAFAVVASALGIPSLLPFLKAVCKSKKSWQARHTGIKIVQQIAILMGCAILPHLRSLVEIIEHGLVDEQQKVRTISALAIAALAEAATPYGIESFDSVLKPLWKGIRQHRGKGLAAFLKAIGYLIPLMDAEYANYYTREVMLILIREFQSPDEEMKKIVLKVVKQCCGTDGVEANYIKTEILPPFFKHFWQHRMALDRRNYRQLVDTTVELANKVGAAEIISRIVDDLKDEAEQYRKMVMETIEKIMGNLGAADIDHKLEEQLIDGILYAFQEQTTEDSVMLNGFGTVVNALGKRVKPYLPQICGTVLWRLNNKSAKVRQQAADLISRTAVVMKTCQEEKLMGHLGVVLYEYLGEEYPEVLGSILGALKAIVNVIGMHKMTPPIKDLLPRLTPILKNRHEKVQENCIDLVGRIADRGAEYVSAREWMRICFELLELLKAHKKAIRRATVNTFGYIAKAIGPHDVLATLLNNLKVQERQNRVCTTVAIAIVAETCSPFTVLPALMNEYRVPELNVQNGVLKSLSFLFEYIGEMGKDYIYAVTPLLEDALMDRDLVHRQTASAVVQHMSLGVYGFGCEDSLNHLLNYVWPNVFETSPHVIQAVMGALEGLRVAIGPCRMLQYCLQGLFHPARKVRDVYWKIYNSIYIGSQDALIAHYPRIYNDDKNTYIRYELDYIL
B2: HTATSF1 in the 17S U2 snRNP eluted with 3C protease (natural protein)
chain: SGTNLDGNDEFDEQLRMQELYGDGKDGDTQTDAGGEPDSLGQQPTDTPYEWDLDKKAWFPKITEDFIATYQANYGFSNDGASSSTANVEDVHARTAEEPPQEKAPEPTDARKKGEKRKAESGWFHVEEDRNTNVYVSGLPPDITVDEFIQLMSKFGIIMRDPQTEEFKVKLYKDNQGNLKGDGLCCYLKRESVELALKLLDEDEIRGYKLHVEVAKFQLKGEYDASKKKKKCKDYKKKLSMQQKQLDWRPERRAGPSRMRHERVVIIKNMFHPMDFEDDPLVLNEIREDLRVECSKFGQIRKLLLFDRHPDGVASVSFRDPEEADYCIQTLDGRWFGGRQITAQAWDGTTDYQVEETSREREERLRGWEAFLNAPEANRGLRRSDSVSASERAGPSRARHFSEHPSTSKMNAQETATGMAFEEPIDEKKFEKTEDGGEFEEGASENNAKESSPEKEAEEGCPEKESEEGCPKRGFEGSCSQKESEEGNPVRGSEEDSPKKESKKKTLKNDCEENGLAKESEDDLNKESEEEVGPTKESEEDDSEKESDEDCSEKQSEDGSEREFEENGLEKDLDEEGSEKELHENVLDKELEENDSENSEFEDDGSEKVLDEEGSEREFDEDSDEKEEEEDTYEKVFDDESDEKEDEEYADEKGLEAADKKAEEGDADEKLFEESDDKEDEDADGKEVEDADEKLFEDDDSNEKLFDEEEDSSEKLFDDSDERGTLGGFGSVEEGPLSTGSSFILSSDDDDDDI
B3: SF3B3 (natural protein)
chain: MFLYNLTLQRATGISFAIHGNFSGTKQQEIVVSRGKILELLRPDPNTGKVHTLLTVEVFGVIRSLMAFRLTGGTKDYIVVGSDSGRIVILEYQPSKNMFEKIHQETFGKSGCRRIVPGQFLAVDPKGRAVMISAIEKQKLVYILNRDAAARLTISSPLEAHKANTLVYHVVGVDVGFENPMFACLEMDYEEADNDPTGEAAANTQQTLTFYELDLGLNHVVRKYSEPLEEHGNFLITVPGGSDGPSGVLICSENYITYKNFGDQPDIRCPIPRRRNDLDDPERGMIFVCSATHKTKSMFFFLAQTEQGDIFKITLETDEDMVTEIRLKYFDTVPVAAAMCVLKTGFLFVASEFGNHYLYQIAHLGDDDEEPEFSSAMPLEEGDTFFFQPRPLKNLVLVDELDSLSPILFCQIADLANEDTPQLYVACGRGPRSSLRVLRHGLEVSEMAVSELPGNPNAVWTVRRHIEDEFDAYIIVSFVNATLVLSIGETVEEVTDSGFLGTTPTLSCSLLGDDALVQVYPDGIRHIRADKRVNEWKTPGKKTIVKCAVNQRQVVIALTGGELVYFEMDPSGQLNEYTERKEMSADVVCMSLANVPPGEQRSRFLAVGLVDNTVRIISLDPSDCLQPLSMQALPAQPESLCIVEMGGTEKQDELGERGSIGFLYLNIGLQNGVLLRTVLDPVTGDLSDTRTRYLGSRPVKLFRVRMQGQEAVLAMSSRSWLSYSYQSRFHLTPLSYETLEFASGFASEQCPEGIVAISTNTLRILALEKLGAVFNQVAFPLQYTPRKFVIHPESNNLIIIETDHNAYTEATKAQRKQQMAEEMVEAAGEDERELAAEMAAAFLNENLPESIFGAPKAGNGQWASVIRVMNPIQGNTLDLVQLEQNEAAFSVAVCRFSNTGEDWYVLVGVAKDLILNPRSVAGGFVYTYKLVNNGEKLEFLHKTPVEEVPAAIAPFQGRVLIGVGKLLRVYDLGKKKLLRKCENKHIANYISGIQTIGHRVIVSDVQESFIWVRYKRNENQLIIFADDTYPRWVTTASLLDYDTVAGADKFGNICVVRLPPNTNDEVDEDPTGNKALWDRGLLNGASQKAEVIMNYHVGETVLSLQKTTLIPGGSESLVYTTLSGGIGILVPFTSHEDHDFFQHVEMHLRSEHPPLCGRDHLSFRSYYFPVKNVIDGDLCEQFNSMEPNKQKNVSEELDRTPPEVSKKLEDIRTRYAF

Common to all, as to assay: cryo-EM structure
For one assay, the target named is PHF5A (human (endogenous in FreeStyle 293-F), UniProt Q7RTV0 1-110).
In a further assay the target is SF3B6 (human (endogenous in FreeStyle 293-F), UniProt Q9Y3B4 1-125).
In the assay “SF3B1” the target is B1.

Regarding B1, the binding result with PHF5A and in the assay with SF3B6 was “binds” in each case.
For B2, the binding result with SF3B1 is reported as “binds”.
Still for that read-out and setting: the entry for B3 is “binds”.
